Assay results reported in patent US20100248359A1 (Chugai, published 2010).

B1: M6B1 (antibody, V domains shown)
VH: EVQLVESGGDLVKPGGSLKLSCAASGFTFSSYAMSWVRQTPEKRLEWVAAINSNGGTTYYPDTMKDRFTISRDNAKNTLYLQMSSLRSEDSALYYCTRHNGGYENYGWFAYWGQGTLVTVSA
VL: DIQMTQSPSSLSASLGGKVTITCKASQDINKNIIWYQHKPGKGPRLLIWYTSTLQPGIPSRFSGSGSGRDYSFSISNLEPEDIATYYCLQYDNLPRTFGGGTKLEIK
notes: Mouse monoclonal from hybridoma
B2: GC33 mouse-human chimeric antibody (antibody, V domains shown)
VH: QVQLQQSGAELVRPGASVKLSCKASGYTFTDYEMHWVKQTPVHGLKWIGALDPKTGDTAYSQKFKGKATLTADKSSSTAYMELRSLTSEDSAVYYCTRFYSYTYWGQGTLVTVSA
VL: DVVMTQTPLSLPVSLGDQASISCRSSQSLVHSNGNTYLHWYLQKPGQSPKLLIYKVSNRFSGVPDRFSGSGSGTDFTLKISRVEAEDLGVYFCSQNTHVPPTFGSGTKLEIK
notes: also called chimeric antibody GC33; mouse/mouse
B3: humanized GC33 H chain ver.c / L chain ver.a (antibody, V domains shown)
VH: QVQLVESGAEVKKPGASVKVSCKASGYTFTDYEMHWVRQAPGQGLEWMGALDPKTGDTAYSQKFKGRVTLTADESTSTAYMELSSLRSEDTAVYYCTRFYSYTYWGQGTLVTVSS
VL: DVVMTQSPLSLPVTPGEPASISCRSSQSLVHSNGNTYLHWYLQKPGQSPQLLIYKVSNRFSGVPDRFSGSGSGTDFTLKISRVEAEDVGVYYCSQNTHVPPTFGQGTKLEIK
B4: humanized GC33 ver.a/ver.a (antibody, V domains shown)
VH: QVQLVESGAEVKKPGASVKVSCKASGYTFTDYEMHWVRQAPGQGLEWMGALDPKTGDTAYSQKFKGRVTITADESTSTAYMELSSLRSEDTAVYYCARFYSYTYWGQGTLVTVSS
VL: DVVMTQSPLSLPVTPGEPASISCRSSQSLVHSNGNTYLHWYLQKPGQSPQLLIYKVSNRFSGVPDRFSGSGSGTDFTLKISRVEAEDVGVYYCSQNTHVPPTFGQGTKLEIK
notes: Human IgG (HEFg gamma1 vector) and human kappa constant regions
B5: humanized GC33 H chain ver.f / L chain ver.a (antibody, V domains shown)
VH: QVQLVESGAEVKKPGASVKVSCKASGYTFTDYEMHWVRQAPGQGLEWMGALDPKTGDTAYSQKFKGRVTLTADKSTSTAYMELSSLRSEDTAVYYCTRFYSYTYWGQGTLVTVSS
VL: DVVMTQSPLSLPVTPGEPASISCRSSQSLVHSNGNTYLHWYLQKPGQSPQLLIYKVSNRFSGVPDRFSGSGSGTDFTLKISRVEAEDVGVYYCSQNTHVPPTFGQGTKLEIK
B6: M13B3 (antibody, V domains shown)
VH: EVHLVESGGGLVKPGGSLKLSCAASGFTFSNYAMSWVRQTPEKRLEWVAAINNNGDDTYYLDTVKDRFTISRDNAKNTLYLQMSSLRSEDTALYYCVRQGGAYWGQGTLVTVSA
VL: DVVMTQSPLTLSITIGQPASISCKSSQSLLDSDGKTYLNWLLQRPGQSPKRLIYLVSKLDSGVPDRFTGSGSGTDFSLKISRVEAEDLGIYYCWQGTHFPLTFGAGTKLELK
notes: as for B1
B7: M10D2 (antibody, V domains shown)
VH: QVQLQQPGAELVKPGASVKLSCKASGYTFTSYWMHWVKQRPGQGLEWIGEIDPSDSYTYYNQKFRGKATLTVDKSSNTAYMQLSSLTSEDSAVYYCSRSNLGDGHYRFPAFPYWGQGTLVTVSA
VL: DIVLTQSPATLSVTPGDRVSLSCRASHSISNFLHWYPQKSHESPRLLIKYASQSISGIPSRFSGNGSGTDFTLSINSVETEDFGMYFCQQSNIWSLTFGAGTKLELK
notes: as for B1
B8: M18D4 (antibody, human IgG1, kappa, V domains shown)
VH: EVQLQQSGTVLARPGASVKMSCKASGYTFTGYWMRWVKQRPGQGLEWIGAIYPGNSDTTYNQKFKGKAKLTAVTSVSTAYMELSSLTNEDSAVYYCSRSGDLTGGFAYWGQGTLVTVST
VL: DIVMTQAAFSNPVTLGTSTSISCRSSKSLLHSNGITYLYWYLQKPGQSPQLLIYQMSNLASGVPDRFSSSGSGTDFTLRISRVEAEDVGVYYCAQNLELPYTFGSGTKLEIKR
notes: as for B1
B9: M5B9 (antibody, V domains shown)
VH: EVQLQQSGTVLARPGASVKMSCKASGYTFTGYWMHWVKQRPGQGLEWIGAIYPGNSDTNYNQKFKGKAKLTAVTSASTAYMELSSLTNEDAAVYHCTRSGDLTGGLAYWGQGTLVTVSA
VL: DIVMTQAAFSNPVTLGTSASISCRSSKSLLHSNGITYLYWFLQKPGQSPQLLIYQMSNLASGVPDRFSSSGSGTDFTLRISRVEAEDVGVYYCAQNLELPYTFGSGTKLEIK
notes: as for B1

What was measured:
full-length human GPC3 [1] = biological target: T1, full-length human GPC3 (human, UniProt P51654 25-554); assay: flow cytometry, antibody at 5 µg/mL, HepG2 cells
T1 construct: On CHO (DXB11) or SK-HEP-1 (SK-03) transfectants; also used here for the GPC3 on the hepatoma lines HepG2 and HuH-7; also called human glypican 3
Protocol: (§1) Cells were dissociated with 1 mM EDTA pH 8.0 (GIBCO)/PBS and suspended in FACS buffer (1% FBS/PBS) at 1×10⁶ cells/mL. The suspension was dispensed to a Multiscreen-HV Filter Plate (Millipore) at 100 μL/well and the supernatant was removed by centrifugation. An anti-GPC3 antibody diluted to an appropriate concentration was added and reacted on ice for 30 minutes. The cells were washed once with FACS buffer and an FITC-labeled anti-mouse IgG antibody was added and reacted on ice for 30 minutes. After the reaction, the cells were centrifuged at 500 rpm for 1 minute, and the supernatant was removed. The cells were suspended in 400 μL of FACS buffer and subjected to flow cytometry. EPICS ELITE ESP (Beckman Coulter) was used as a flow cytometer. A gate was set on the living cell population with the histogram of forward scatter and side scatter.

full-length human GPC3 [2] = biological target: T1, full-length human GPC3; assay: flow cytometry, antibody at 5 µg/mL, HuH-7 cells
[3] = biological target: T2, soluble form of GPC3 core protein (human, UniProt P51654 25-563); assay: ELISA on plate coated with soluble GPC3 core protein
T2 construct: not shown: His tag added to the C-terminus
Target sequence in this assay (P51654 25-563 S495A/S509A, form in doubt): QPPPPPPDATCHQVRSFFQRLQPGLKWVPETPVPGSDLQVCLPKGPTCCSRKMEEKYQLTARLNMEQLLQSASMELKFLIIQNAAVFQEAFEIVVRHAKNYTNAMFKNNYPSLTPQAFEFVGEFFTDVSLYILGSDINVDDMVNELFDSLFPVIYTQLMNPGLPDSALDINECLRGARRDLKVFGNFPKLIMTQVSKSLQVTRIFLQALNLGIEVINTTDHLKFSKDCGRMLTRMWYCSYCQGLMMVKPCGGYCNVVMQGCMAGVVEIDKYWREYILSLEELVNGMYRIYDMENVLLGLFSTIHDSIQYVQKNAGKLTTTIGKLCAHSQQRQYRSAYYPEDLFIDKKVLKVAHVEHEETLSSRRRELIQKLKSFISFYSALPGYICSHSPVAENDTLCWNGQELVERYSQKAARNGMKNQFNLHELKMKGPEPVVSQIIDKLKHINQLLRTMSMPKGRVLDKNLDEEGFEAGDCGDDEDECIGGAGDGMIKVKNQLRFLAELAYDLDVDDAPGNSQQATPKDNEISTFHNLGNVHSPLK

[4] = biological target: T2, soluble form of GPC3 core protein; assay: competitive ELISA on coated soluble GPC3 core protein; labelled competitor biotin-M1E7;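 note: Biotin-labelled antibody added as 10 µL at 10 µg/mL for 1 h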
Target sequence in this assay (P51654 25-563 S495A/S509A, form in doubt): as above

[5] = biological target: T2, soluble form of GPC3 core protein; assay: competitive ELISA on coated soluble GPC3 core protein; labelled competitor biotin-M5B9;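 note: Biotin-labelled antibody added as 10 µL at 10 µg/mL for 1 h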
Target sequence in this assay (P51654 25-563 S495A/S509A, form in doubt): as above

[6] = biological target: T2, soluble form of GPC3 core protein; assay: competitive ELISA on coated soluble GPC3 core protein; labelled competitor biotin-M6B1;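 note: Biotin-labelled antibody added as 10 µL at 10 µg/mL for 1 h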
Target sequence in this assay (P51654 25-563 S495A/S509A, form in doubt): as above
Protocol: (§2) The antibodies were biotinylated using a Biotin Labeling Kit (Roche). The soluble form of GPC3 core protein was diluted to 1 μg/mL with the coating buffer and added to a plate at 100 μL/well and stored at 4° C. overnight to coat the plate. On the next day, 200 μL of the substrate buffer was added for blocking. The plate was left at 4° C. overnight or longer and an anti-GPC3 antibody was added to the plate at 100 μL/well and reacted at room temperature for 1 hour. After that, without washing of the plate, 10 μL of 10 μg/mL biotin-labeled anti-GPC3 antibody was added and further reacted for 1 hour. The plate was washed with 300 μL/well of the rinse buffer for 3 times. AP-streptavidin conjugate (ZYMED) was diluted to 1000-fold with the dilution buffer and added at 100 μL/well and reacted at room temperature for 1 hour. The plate was washed with 300 μL/well of the rinse buffer for 5 times.

[7] = biological target: T2, soluble form of GPC3 core protein; assay: competitive ELISA on coated soluble GPC3 core protein; labelled competitor biotin-L9G11;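 note: Biotin-labelled antibody added as 10 µL at 10 µg/mL for 1 h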
Protocol: (§3) The obtained antibodies were classified according to the epitopes by a competitive ELISA. The antibodies were biotinylated using a Biotin Labeling Kit (Roche). The soluble form of GPC3 core protein was diluted to 1 μg/mL with the coating buffer and added to a plate at 100 μL/well and stored at 4° C. overnight to coat the plate. On the next day, 200 μL of the substrate buffer was added for blocking. The plate was left at 4° C. overnight or longer and an anti-GPC3 antibody was added to the plate at 100 μL/well and reacted at room temperature for 1 hour. After that, without washing of the plate, 10 μL of 10 μg/mL biotin-labeled anti-GPC3 antibody was added and further reacted for 1 hour. The plate was washed with 300 μL/well of the rinse buffer for 3 times. AP-streptavidin conjugate (ZYMED) was diluted to 1000-fold with the dilution buffer and added at 100 μL/well and reacted at room temperature for 1 hour. The plate was washed with 300 μL/well of the rinse buffer for 5 times.

[8] = biological target: T2, soluble form of GPC3 core protein; assay: competitive ELISA on coated soluble GPC3 core protein; labelled competitor biotin-M10D2;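 note: Biotin-labelled antibody added as 10 µL at 10 µg/mL for 1 h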
Target sequence in this assay (P51654 25-563 S495A/S509A, form in doubt): as above
Protocol: as §2

[9] = biological target: T2, soluble form of GPC3 core protein; assay: competitive ELISA on coated soluble GPC3 core protein; labelled competitor biotin-M11F1;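 note: Biotin-labelled antibody added as 10 µL at 10 µg/mL for 1 h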
Target sequence in this assay (P51654 25-563 S495A/S509A, form in doubt): as above
Protocol: as §2

[10] = biological target: T2, soluble form of GPC3 core protein; assay: competitive ELISA on coated soluble GPC3 core protein; labelled competitor biotin-M18D4;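 note: Biotin-labelled antibody added as 10 µL at 10 µg/mL for 1 h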
Protocol: as §3

[11] = biological target: T2, soluble form of GPC3 core protein; assay: competitive ELISA on coated soluble GPC3 core protein; labelled competitor biotin-M3C11;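 note: Biotin-labelled antibody added as 10 µL at 10 µg/mL for 1 h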
Protocol: as §3

full-length human GPC3 [12] = biological target: T1, full-length human GPC3; assay: flow cytometry, antibody at 5 µg/mL, CHO cells expressing human GPC3 (column CHO/human GPC3)
Protocol: as §1

[13] = biological target: T2, soluble form of GPC3 core protein; assay: ELISA on GPC3 (the legend says only GPC3; the filing's ELISA uses plates coated with soluble GPC3 core protein) [upper panel]
full-length human GPC3 [14] = biological target: T1, full-length human GPC3; assay: BIACORE; the form of GPC3 used is not given

T1 sequence (P51654 25-554 limits assumed): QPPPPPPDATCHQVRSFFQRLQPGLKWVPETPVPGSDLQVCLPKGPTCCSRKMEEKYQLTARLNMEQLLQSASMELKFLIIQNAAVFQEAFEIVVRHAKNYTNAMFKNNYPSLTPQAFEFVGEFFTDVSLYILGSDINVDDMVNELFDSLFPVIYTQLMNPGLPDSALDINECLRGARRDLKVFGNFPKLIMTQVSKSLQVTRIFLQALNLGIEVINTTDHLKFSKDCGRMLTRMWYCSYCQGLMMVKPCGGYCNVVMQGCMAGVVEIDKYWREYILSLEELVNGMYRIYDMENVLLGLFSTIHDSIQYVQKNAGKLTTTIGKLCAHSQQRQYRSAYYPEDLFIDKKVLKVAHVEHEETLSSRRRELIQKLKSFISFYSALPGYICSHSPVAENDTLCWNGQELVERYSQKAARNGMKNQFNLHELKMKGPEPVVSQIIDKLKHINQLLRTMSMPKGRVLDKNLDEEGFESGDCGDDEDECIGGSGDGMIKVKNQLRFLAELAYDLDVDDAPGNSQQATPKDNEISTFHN

FACS X-mode value of the histogram (full-length human GPC3 [1])	FACS X-mode value of the histogram (full-length human GPC3 [2])	EC50 [3] [nM]	Inhibition of the binding of indicated biotin-Mab to sGPC3 core (%) [4] [%]	Inhibition of the binding of indicated biotin-Mab to sGPC3 core (%) [5] [%]	Inhibition of the binding of indicated biotin-Mab to sGPC3 core (%) [6] [%]	Inhibition of the binding of indicated biotin-Mab to sGPC3 core (%) [7] [%]	Inhibition of the binding of indicated biotin-Mab to sGPC3 core (%) [8] [%]	Inhibition of the binding of indicated biotin-Mab to sGPC3 core (%) [9] [%]	Inhibition of the binding of indicated biotin-Mab to sGPC3 core (%) [10] [%]	Inhibition of the binding of indicated biotin-Mab to sGPC3 core (%) [11] [%]	FACS X-mode value of the histogram (full-length human GPC3 [12])	EC50 (read off the curve) [13] [mg/L]	Kd (full-length human GPC3 [14]) [nM]	koff (full-length human GPC3 [14]) [s⁻¹]	kon (full-length human GPC3 [14]) [M⁻¹ s⁻¹]	Binder
34	3	5.51	-2.7	44.4	85.6	1.1	6.7	13.9	51.9	-5.7	37	–	–	–	–	B1
–	–	–	–	–	–	–	–	–	–	–	–	~0.01	–	–	–	B2
–	–	–	–	–	–	–	–	–	–	–	–	~0.01	–	–	–	B3
–	–	–	–	–	–	–	–	–	–	–	–	~0.1	–	–	–	B4
–	–	–	–	–	–	–	–	–	–	–	–	~0.01	–	–	–	B5
–	–	0.25	95.7	-1.8	9.3	24.9	22.3	15.6	2.7	71.3	–	–	–	–	–	B6
29	3	1.04	0.6	-10.3	-5.9	7.2	79.2	7.8	-21.6	-7.7	20	–	4.7	0.000496	110000	B7
20	2	0.85	0.5	89.4	38.6	6.7	19.1	-0.3	89	0.2	22	–	6.2	0.000496	80000	B8
23	2	1.13	2.7	77.3	23.2	10.3	13.4	5.3	77.3	0.1	25	–	23.5	0.00139	60000	B9
